Measured values taken from patent US20240277845A1 (XYPHOS BIOSCIENCES, published 2024).

B1: Fc-iNKG2D.YA (Fc fusion, human, not shown: a dimerising Fc or GST)
chain: IEGRFLNSLFNQEVQIPLTESYCGPCPKNWICYKNNCYQFFDESKNWYESQASCMSQNASLLKVYSKEDQDLLKLVKSAHWMGLVHIPTNGSWQWEDGSILSPNLLTIIEMQKGDCALYASSFKGYIENCSTPNTYICMQRTV
notes: range 78-216; also called Y152A mutant

Experiments:
ULBP3-Fc = target: T1, ULBP3-Fc (UniProt Q9BZM4 30-217); assay: ELISA; ligand-Fc coated, biotinylated Fc-iNKG2D.YA titrated, streptavidin-HRP; x axis printed as 'nM ligand-Fc'
T1 construct: Bought reagent; also called Ligand-Fc fusion (R&D Systems); not shown: Fc of the bought fusion, not described
T1 sequence (looked up): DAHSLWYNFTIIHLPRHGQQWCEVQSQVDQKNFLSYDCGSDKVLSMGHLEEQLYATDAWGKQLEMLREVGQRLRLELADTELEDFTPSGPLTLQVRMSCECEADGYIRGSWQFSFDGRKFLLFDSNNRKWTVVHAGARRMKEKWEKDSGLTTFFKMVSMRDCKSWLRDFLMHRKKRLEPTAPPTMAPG

ULBP2-Fc = target: T2, ULBP2-Fc (UniProt Q9BZM5 26-217); assay: as above
T2 construct: Bought reagent; also called Ligand-Fc fusion (R&D Systems); not shown: Fc of the bought fusion, not described
T2 sequence (looked up): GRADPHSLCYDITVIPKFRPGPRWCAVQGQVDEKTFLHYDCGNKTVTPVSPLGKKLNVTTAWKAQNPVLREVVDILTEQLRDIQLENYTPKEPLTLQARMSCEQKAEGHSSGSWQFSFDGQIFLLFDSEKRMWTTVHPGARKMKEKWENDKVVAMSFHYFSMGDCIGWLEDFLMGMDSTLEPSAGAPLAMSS

ULBP4-Fc = target: T3, ULBP4-Fc (UniProt Q8TD07 31-225, limits assumed); assay: as above
T3 construct: Bought reagent; also called Ligand-Fc fusion (R&D Systems); not shown: Fc of the bought fusion, not described
T3 sequence (looked up): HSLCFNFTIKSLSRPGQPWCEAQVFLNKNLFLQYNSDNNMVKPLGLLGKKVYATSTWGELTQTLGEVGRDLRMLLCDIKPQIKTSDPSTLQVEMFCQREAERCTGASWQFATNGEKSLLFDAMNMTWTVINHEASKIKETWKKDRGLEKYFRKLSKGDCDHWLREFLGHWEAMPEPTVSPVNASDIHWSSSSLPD

ULBP1-Fc = target: T4, ULBP1-Fc (UniProt Q9BZM6 26-216); assay: as above
T4 construct: Bought reagent; also called Ligand-Fc fusion (R&D Systems); not shown: Fc of the bought fusion, not described
T4 sequence (looked up): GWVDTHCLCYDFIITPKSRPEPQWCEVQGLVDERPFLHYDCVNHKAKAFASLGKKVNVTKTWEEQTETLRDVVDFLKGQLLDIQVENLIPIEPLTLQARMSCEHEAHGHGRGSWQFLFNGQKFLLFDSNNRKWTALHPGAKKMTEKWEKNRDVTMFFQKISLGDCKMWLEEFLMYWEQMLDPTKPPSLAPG

MICB-Fc = target: T5, MICB-Fc (UniProt Q29980 23-298, limits assumed); assay: as above
T5 construct: Bought reagent; also called Ligand-Fc fusion (R&D Systems); not shown: Fc of the bought fusion, not described
T5 sequence (looked up): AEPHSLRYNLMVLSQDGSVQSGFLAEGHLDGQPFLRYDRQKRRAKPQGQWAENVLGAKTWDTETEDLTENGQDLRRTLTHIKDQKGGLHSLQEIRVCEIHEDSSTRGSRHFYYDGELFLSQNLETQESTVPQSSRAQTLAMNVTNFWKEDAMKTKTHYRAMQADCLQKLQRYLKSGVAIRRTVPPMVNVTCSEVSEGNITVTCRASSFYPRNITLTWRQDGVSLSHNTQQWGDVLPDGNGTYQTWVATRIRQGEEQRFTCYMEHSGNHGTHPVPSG

MICA-Fc = target: T6, MICA-Fc (UniProt Q29983 24-308); assay: as above
T6 construct: Bought reagent; also called Ligand-Fc fusion (R&D Systems); not shown: Fc of the bought fusion, not described
T6 sequence (Q29983 24-308 limits assumed): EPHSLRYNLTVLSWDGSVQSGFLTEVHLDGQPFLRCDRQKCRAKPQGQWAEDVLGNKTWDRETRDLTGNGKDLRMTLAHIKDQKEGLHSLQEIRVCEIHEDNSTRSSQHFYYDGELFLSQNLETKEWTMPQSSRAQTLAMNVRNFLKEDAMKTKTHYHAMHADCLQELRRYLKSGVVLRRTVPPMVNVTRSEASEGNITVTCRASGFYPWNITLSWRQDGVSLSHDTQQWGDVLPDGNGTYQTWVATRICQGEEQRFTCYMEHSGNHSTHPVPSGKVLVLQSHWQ

Fc-iNKG2D.YA [1] = target: B1; assay: ELISA; wells coated with Fc-iNKG2D.YA, Rituximab.LC-U2S3 titrated
mouse NKG2D = target: T7, mouse NKG2D (mouse, UniProt O54709 94-232, limits assumed); assay: ELISA on mouse NKG2D, MicAbody titrated; y axis 'Mouse NKG2D binding' (absorbance)
T7 construct: also called mouse wild-type NKG2D
T7 sequence (looked up): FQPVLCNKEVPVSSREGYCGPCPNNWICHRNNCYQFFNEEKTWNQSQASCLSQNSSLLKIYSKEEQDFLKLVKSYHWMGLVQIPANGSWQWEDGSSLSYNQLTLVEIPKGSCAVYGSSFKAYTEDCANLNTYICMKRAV

Fc-iNKG2D.YA [2] = target: B1; assay: Octet BLI; Fc-iNKG2D.YA captured on AHC tips, two-fold dilution series of MicAbody from 50 nM
Protocol: (§1) YA were captured with anti-human IgG Fc capture (AHC) biosensor tips then associated with a two-fold dilution series of MicAbody starting at 50 nM. The y-axes corresponding to binding responses were set to the same scale for all sensograms.

Fc-iNKG2D.YA [3] = target: B1; assay: ELISA; 'iNKG2D.YA capture; CD20(Rit)-MicAb titration; anti-kappa-HRP detection'
Fc-wtNKG2D [4] = target: T8, Fc-wtNKG2D (human, UniProt P26718 78-216); assay: ELISA on wild-type NKG2D (FIG. 19); ELISA on wild-type NKG2D (FIG. 19), Rituximab light-chain fusion
T8 construct: range 78-216; NKG2D ectodomain fused to the C-terminus of human IgG1 Fc; dimeric secreted protein; biotinylated in some ELISAs; also called wild-type NKG2D; Fc-NKG2D
T8 sequence: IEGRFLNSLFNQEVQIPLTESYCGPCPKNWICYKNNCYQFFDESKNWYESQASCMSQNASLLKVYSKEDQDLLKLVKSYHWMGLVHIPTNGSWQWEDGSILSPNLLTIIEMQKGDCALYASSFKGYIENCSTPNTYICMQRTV

Fc-wtNKG2D [5] = target: T8, Fc-wtNKG2D; assay: Octet BLI; Fc-wtNKG2D captured on AHC tips, dilution series of His-tagged monomeric ligand
Fc-iNKG2D.YA [6] = target: B1; assay: Octet BLI; Fc-iNKG2D.YA captured on AHC tips, dilution series of His-tagged monomeric ligand
Fc-iNKG2D.YA [7] = target: B1; assay: Octet BLI, Fc-iNKG2D.YA on AHC tips, His-tagged monomer (FIG. 4C)
Fc-iNKG2D.YA [8] = target: B1; assay: Octet BLI; Fc-iNKG2D.YA captured on AHC tips, two-fold dilution series from 50 nM
Protocol: as §1

Fc-wtNKG2D [9] = target: T8, Fc-wtNKG2D; assay: Octet BLI; Fc-wtNKG2D captured on AHC tips, two-fold dilution series from 50 nM
Protocol: as §1

## B1
ULBP3-Fc
  binding result: no binding (tested: about 2000 nM)
ULBP2-Fc
  binding result: no binding (tested: about 2000 nM)
ULBP4-Fc
  binding result: no binding (tested: about 2000 nM)
ULBP1-Fc
  binding result: no binding (tested: about 2000 nM)
MICB-Fc
  binding result: no binding (tested: about 2000 nM)
MICA-Fc
  binding result: no binding (tested: about 2000 nM)

B2: Rituximab.LC-U2S3 MicAbody (bispecific antibody, human IgG1, kappa, N297A)
heavy: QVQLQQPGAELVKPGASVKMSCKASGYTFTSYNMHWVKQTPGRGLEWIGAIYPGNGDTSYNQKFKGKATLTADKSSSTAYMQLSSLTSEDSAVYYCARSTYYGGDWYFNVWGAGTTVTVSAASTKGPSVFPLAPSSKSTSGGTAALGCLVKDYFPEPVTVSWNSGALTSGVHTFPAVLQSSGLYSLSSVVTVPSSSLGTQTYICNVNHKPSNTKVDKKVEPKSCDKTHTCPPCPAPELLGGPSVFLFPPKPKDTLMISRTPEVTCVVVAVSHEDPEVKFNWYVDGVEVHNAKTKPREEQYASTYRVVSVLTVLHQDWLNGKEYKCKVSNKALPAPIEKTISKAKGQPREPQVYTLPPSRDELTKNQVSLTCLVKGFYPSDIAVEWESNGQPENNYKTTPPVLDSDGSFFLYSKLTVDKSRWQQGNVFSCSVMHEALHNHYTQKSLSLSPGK
light: QIVLSQSPAILSASPGEKVTMTCRASSSVSYIHWFQQKPGSSPKPWIYATSNLASGVPVRFSGSGSGTSYSLTISRVEAEDAATYYCQQWTSNPPTFGGGTKLEIKRTVAAPSVFIFPPSDEQLKSGTASVVCLLNNFYPREAKVQWKVDNALQSGNSQESVTEQDSKDSTYSLSSTLTLSKADYEKHKVYACEVTHQGLSSPVTKSFNRGECAPTSSSGGGGSEPHSLSYDITVIPKFRPGPRWCAVQGQVDEKTFLHYDCGNKTVTPVSPLGKKLNVTTAWKAQNPVLREVVDILTEQLWDIQLENYTPKEPLTLQARMSCEQKAEGHSSGSWQFSFDGQIFLLFDSEKRMWTTVHPGARKMKEKWENDKVVATKLYLWSMGDCIGWLEDFLMGMDSTLEPS
notes: also called Rit-S3; Rit.S3
Fc-iNKG2D.YA [1]
  EC50 (read off the curve): ~0.03 nM
Mouse NKG2D
  EC50 (read off the curve): ~40 nM
Fc-iNKG2D.YA [2]
  Kd: 0.01 nM
Fc-iNKG2D.YA [3]
  EC50 (read off the curve): ~0.06 nM

B3: Rituximab light-chain fusion of U2S3 (NQ) (bispecific antibody)
heavy: QVQLQQPGAELVKPGASVKMSCKASGYTFTSYNMHWVKQTPGRGLEWIGAIYPGNGDTSYNQKFKGKATLTADKSSSTAYMQLSSLTSEDSAVYYCARSTYYGGDWYFNVWGAGTTVTVSAA
light: QIVLSQSPAILSASPGEKVTMTCRASSSVSYIHWFQQKPGSSPKPWIYATSNLASGVPVRFSGSGSGTSYSLTISRVEAEDAATYYCQQWTSNPPTFGGGTKLEIKRTVAAPSVFIFPPSDEQLKSGTASVVCLLNNFYPREAKVQWKVDNALQSGNSQESVTEQDSKDSTYSLSSTLTLSKADYEKHKVYACEVTHQGLSSPVTKSFNRGECAPTSSSGGGGSEPHSLSYDITVIPKFRPGPRWCAVQGQVDEKTFLHYDCGQKTVTPVSPLGKKLQVTTAWKAQNPVLREVVDILTEQLWDIQLENYTPKEPLTLQARMSCEQKAEGHSSGSWQFSFDGQIFLLFDSEKRMWTTVHPGARKMKEKWENDKVVATKLYLWSMGDCIGWLEDFLMGMDSTLEPS
notes: also called Rit.NQ; Rit.S3.NQ; not shown: human IgG1 heavy-chain constant region, ADCC-deficient
Fc-iNKG2D.YA [3]
  EC50 (read off the curve): ~0.04 nM
Fc-wtNKG2D [4]
  binding result: no binding

B4: His-tagged monomeric U2S3 (ligand)
chain: EPHSLSYDITVIPKFRPGPRWCAVQGQVDEKTFLHYDCGNKTVTPVSPLGKKLNVTTAWKAQNPVLREVVDILTEQLWDIQLENYTPKEPLTLQARMSCEQKAEGHSSGSWQFSFDGQIFLLFDSEKRMWTTVHPGARKMKEKWENDKVVATKLYLWSMGDCIGWLEDFLMGMDSTLEPHHHHHH
notes: also called orthogonal U2S3 ligand
Fc-wtNKG2D [5]
  binding result: no binding (tested: not printed on the sheet)
Fc-iNKG2D.YA [6]
  Kd: 28 nM
Fc-iNKG2D.YA [7]
  fold higher affinity than wild-type ULBP2 to wtNKG2D: 10 fold

B5: Rituximab antibody (ADCC-deficient) (antibody, V domains shown)
VH: QVQLQQPGAELVKPGASVKMSCKASGYTFTSYNMHWVKQTPGRGLEWIGAIYPGNGDTSYNQKFKGKATLTADKSSSTAYMQLSSLTSEDSAVYYCARSTYYGGDWYFNVWGAGTTVTVSA
VL: QIVLSQSPAILSASPGEKVTMTCRASSSVSYIHWFQQKPGSSPKPWIYATSNLASGVPVRFSGSGSGTSYSLTISRVEAEDAATYYCQQWTSNPPTFGGGTKLEIK
notes: also called parent rituximab antibody; Rit.P; not shown: human IgG1 heavy-chain constant region, ADCC-deficient
Fc-iNKG2D.YA [8]
  binding result: no binding (tested: 50 nM)
Fc-wtNKG2D [9]
  binding result: no binding (tested: 50 nM)
